± gives the uncertainty stated by the source.
Assay: amyloid nucleation score (Sup35N fusion, yeast selection) (log enrichment); library NNK2; higher = more nucleation; inactive = no reads after selection
Summary of the method: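 Three technical output replicates were used for random libraries. Psi-negative yeast expressing peptides of 20 random codons fused to Sup35N were induced with 100 μM copper sulfate for 24 hours and grown 7 days at 30°C on medium lacking adenine and uracil, and input and output plasmid inserts were Illumina-sequenced, excluding sequences with under 100 input reads. The nucleation score is the DiMSum log enrichment of output over input reads, centred on the mode score of non-aggregating sequences.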

Point of comparison: GEQSDFSSSYSYLLWKVWDG, amyloid nucleation score -1.2 ± 0.36. Against it:
- WHGTDHKIVGQDIVVVYSAV — higher, 0.491 ± 0.6
- PAFMSV — within error, -1.05 ± 0.36
- LVNDHGVSVVSCGTD — higher, 0.053 ± 0.79
- SGFNGFSLNHFQNQFKTPRS — within error, -0.356 ± 1.1
- RRVGRYESWRNFSNEI — within error, -0.835 ± 0.27
- TVAWTSRLFSLAGLLHFDR — higher, 4.82 ± 0.062
- IRECLVRSATSFLLDHKRRC — within error, -0.383 ± 1
- RIYLVAIYL — higher, 3.49 ± 0.067
- GFIVRMDTMLSSALASYCRL — within error, -0.25 ± 0.63
- CNNSVGVFYKGLTELLCLRS — within error, -0.986 ± 1.1
- FDQTFEDWWPAYNHSRFNQH — higher, 0.352 ± 0.51
- TMILCRKYNASWMIVARNDL — within error, -0.311 ± 1.1
- ASSMILL — within error, -1.18 ± 0.64
- FNAIYIKFTGRFSLTRDNRC — higher, 1.73 ± 0.21
- KFMHRWPVYMVSTGLSLIVW — within error, -0.458 ± 0.41
- SFCDLWLLAQDHAKLLGFIA — within error, -0.499 ± 0.55
- HGGPS — within error, -0.571 ± 0.38
- YCAFSMYMFKGIIRYAICVV — within error, -1.25 ± 0.38
- KFSKGSPGWWHQGSLCMVAM — higher, 1.51 ± 0.58
- KGGNIHSRVTYR — within error, -0.669 ± 0.37
- HAILPRCTFHSPMVYALYFT — higher, 0.58 ± 0.65
- KVVITQSRVGTLESVKVFYV — higher, 1.77 ± 0.19
- GVASNGKGFNTFMCAHCY — higher, -0.225 ± 0.41
- ASVRENFYIGLCRKCYYHNP — higher, 1.59 ± 0.16
- MELRFDCF — within error, 0.089 ± 1.1
- ASDPIMTVSRPIPMHPLY — within error, -0.172 ± 0.76
- HYYIHSFNMYPVGSRLVPYE — higher, -0.065 ± 0.42
- TSTLNRDDG — higher, 0.367 ± 0.34
- SLDNWFTDSRAGVGLVFS — within error, -0.277 ± 1
- ISRKVAGSRDCINVRSTIGL — within error, -1.14 ± 0.44
- KNYVYWDLIHRFCLSTMR — higher, 1.62 ± 0.52
- SCSMLVRDDIIIEPDCLLGV — higher, 0.45 ± 0.74
- RLVFVFITDG — higher, 2.96 ± 0.054
- HFVNMHH — within error, -0.213 ± 0.76
- ARMRFKRRKCCNAIWVRSSV — higher, 0.398 ± 0.3
- PAPCTFRYLAITCGLTRYTC — higher, -0.143 ± 0.34
- RVRIGQAGVWAPRPKELTLW — higher, 0.679 ± 0.81
- SPSDAL — within error, -0.578 ± 0.36
- CIMRGREQDFWQSDY — higher, 0.116 ± 0.23
- CTPNWRLSSFRWYVLRTFSE — higher, 0.052 ± 0.37
- YVLDFSNWIGDTADSIVAV — higher, 0.145 ± 0.56
- FTSLGMQLCYWHRISLCVSW — within error, -1.05 ± 0.61
- NPFLFAYANYLLLMCIGRVY — higher, -0.044 ± 0.61
- TFRWCHCYLTKEHVRFTCRA — higher, 1.55 ± 0.53
- HSSLFSYREQLYTSFCNIGM — higher, 4.99 ± 0.067
- KLLAVVLFGDGLAFNN — higher, 3.24 ± 0.064
- NNRVVFTGRFL — within error, -1.45 ± 0.47
- IYGLCERTFEA — higher, 0.977 ± 0.14
- IFRISPSLGKRYGVRPERSW — higher, 1.32 ± 0.38
- MFVGSGRDCTVTVPFRQPTG — higher, 1.86 ± 0.29
- SMMKLDEYI — within error, -1.17 ± 0.78
- VVNTVYSFSE — higher, 0.332 ± 0.35
- PCRLHLAWIVSLMT — higher, 4.21 ± 0.067
- ADHVDAYSFRDNDLSYQVYL — higher, 1.41 ± 0.46
- RHQYETKYRPYRVIPLQRMV — higher, 0.277 ± 0.46
- FMSMLSCQAKTNLPMYATHM — within error, -0.091 ± 0.79
- YLRRL — within error, -0.775 ± 0.61
- WAVSATWWNFLSVYRKLSDL — within error, -0.095 ± 1.1
- TAFNIVSCSGLCSYYQFRF — higher, 8.109 ± 0.03
- GLYTKT — higher, 0.028 ± 0.14
- SISSGMVDVAGQLSCTRVSE — higher, 1.65 ± 0.32
- TLSCKFIKGWLIQQYSHNKD — within error, -0.187 ± 0.76
- AVPNLGSVPYVVDLMI — higher, 0.907 ± 0.29
- RIFRYNDTVLCVLLGTNVGD — within error, -0.418 ± 1.1
- LPCFL — higher, 1.93 ± 0.1
- GWEYYSCGENWSLSPLSGYN — within error, -0.969 ± 0.34
- SRIMALTMCFYTNRGRELVN — within error, -1.19 ± 0.38
- VNQLRHYDLGINAHGQCRRL — higher, 0.54 ± 0.8
- NKEKN — higher, 2.58 ± 0.13
- RAVEEYAVPS — higher, 0.878 ± 0.35
- WLTSS — higher, -0.173 ± 0.54
- RRMNHLPFCCKRYRTSRPKF — higher, 0.222 ± 0.64
- NHMKFAGLGGCYSYCTFLVD — higher, 6.587 ± 0.045
- TFAIIRIII — higher, 1.37 ± 0.33
- DKWLWEL — higher, 0.575 ± 0.32
- YTVYFSVGVVVE — within error, -1.42 ± 0.49
- PTMYWFPPETATSPPYGPPG — higher, 3.54 ± 0.1
- KDYSGGIRHPVVPSGMISYL — within error, -1.44 ± 1.1
- VGFLYACYFRGTAVNETGYT — higher, 1.15 ± 0.13
- IAVATSGP — higher, 0.84 ± 0.46
- SVSLDMGFSLDSHMRGEGRS — higher, 5.22 ± 0.057
- YRSIC — within error, -1.63 ± 0.75
- IRFTKYNDGCILIMPRDVQV — within error, -0.995 ± 0.55
- RSFLLVLAELCFT — higher, 4.22 ± 0.12
- NPLYEARKRNRLYTFGATRF — higher, 3.65 ± 0.084
- ALMHTNGTV — within error, -0.406 ± 1.1
- VTTMRNSFKFYAIVMGLCSF — higher, 0.272 ± 0.65
- LLLVRFAPISV — within error, -0.176 ± 1.1
- IGLDRWLMSLRRYAMHK — higher, -0.089 ± 0.18
- DKKMVTTPTMPDK — higher, 0.977 ± 0.2
- RVVLCVNLSPTSFVWSRIKE — higher, 3.45 ± 0.15
- RVNCYYSFRS — higher, 6.026 ± 0.038
- SDGEKFG — within error, -0.256 ± 1.1
- LSWYDLSVQWNLYNIVGRRV — higher, 2.06 ± 0.078
- LRFNSNHPHFRGHLYSAVQR — higher, 3.7 ± 0.15
- TSMSYLLRFVCGFRCTYSLC — higher, 0.854 ± 0.52
- ITTSSSWCATILSPQFFKDV — within error, -0.569 ± 0.44
- DTCYVTTYVWWKTLCPVGLV — higher, 1.72 ± 0.31
- YCKQNESVLDPSIDSLRVLP — higher, 0.673 ± 0.26
- TVPRFEKHFRAVVNLLGRND — higher, 0.277 ± 0.46
- HWYTAMVYIFKRQD — higher, 0.974 ± 0.091
- SSFFRISS — within error, -0.907 ± 1
- LEYERC — within error, -0.097 ± 1.1
- ICFWMACKIECCQQRTNFVS — higher, -0.139 ± 0.26
- TIIIREQSKPFPCLE — higher, 0.931 ± 0.74
- IMMQDWGIGFAFIGSPCRCD — higher, 9.01 ± 0.048
- ASGCLNLVCQNVCTSRSTNV — higher, 8.954 ± 0.067
- PFYLVRRGWNIWNSNGVECH — within error, -0.161 ± 1.1
- MPHLVVTNAPGVSIRVGSDW — within error, -0.888 ± 0.78
- VLAYMQHFYRCQLCSVYVWG — higher, 4.23 ± 0.11
- NRTFSHWTCLYLFLSTLKRE — within error, -1.06 ± 0.76
- VTNVSQISNSRNVMERSIMF — the same, -1.2 ± 0.41
- ILSNMGSMVFTLCNRDSMLR — within error, -0.523 ± 1
- LMPGMVGDRRGCNDK — higher, 0.49 ± 0.26
- MFVWVQSRIGKGFGMGFRRW — within error, -0.307 ± 0.76
- TTAWSVEINGTMRNDDMSAS — higher, 2.2 ± 0.091
- KKSHFLKRYNTAYVGRHLVH — higher, -0.07 ± 0.53
- GYCSDGWFAECTEWEAPVSR — higher, 0.343 ± 0.64
- MSKGVYIYNIYYLVMSGVPL — higher, 4.9 ± 0.063
- STMLWLCFFMGKLSVDTVFE — within error, -0.6 ± 0.53
- RWIVGQRRKIESWWQMVPIY — higher, 0.81 ± 0.4
- SFRRSPELSQEFTRGYDSYR — within error, -0.276 ± 0.76
- PRGAPNVFDFTLNFSLKQVA — within error, -0.551 ± 0.35
- RRLSGSFLRDYVNPWIQRSS — higher, -0.277 ± 0.42
- YLLRYYGGSFNHLMCWFRSP — higher, 2.6 ± 0.06
- EFRGWNI — within error, -0.587 ± 0.79
- SVECKCYYRL — higher, 5.59 ± 0.062
- VHAVGHNSIGTRIRWVNGAA — higher, 0.504 ± 0.33
- DVHRWKIWQASG — higher, 0.901 ± 0.26
- HGCLYFRFLNALSSFGGYRA — within error, -1.7 ± 1
- LCYHLYTRVITCFLLIDLVC — within error, -0.27 ± 1.1
- QCYAMSSLMMLYLFFLWGCG — within error, -1.05 ± 0.55
- RSVSGMVWE — higher, 0.21 ± 0.74
- AVFRLFASVPGFNRRPGLEQ — higher, 0.314 ± 0.25
- TNDASYSIDLWW — higher, -0.304 ± 0.18
- LYEYHHGFVCQRVCGAIVGR — higher, 1.23 ± 0.43
- KMSELWFVIKPWFWIMGLEK — within error, -0.403 ± 1.1
- EFNCYGWKRRKRRCWGGKCR — higher, 0.726 ± 0.41
- ISFNQHTLSYKNVIFNCAFE — higher, 4.16 ± 0.044
- AEYRNDMAIEVSSSYCCGY — higher, 3.43 ± 0.082
- NGTCLYAYIMIRLISNEFSR — higher, -0.417 ± 0.42
- TVVSVGVVRVHATLRVKESG — higher, 5.661 ± 0.056
- WWFYAYVYWRW — higher, -0.403 ± 0.43
- MLKWWLFTRSSSPGRHCRLD — within error, -0.471 ± 0.54
- MVVEFCYVRYRAN — higher, 0.716 ± 0.6
- SSATFYT — higher, 1.43 ± 0.26
- PLGPNSTYFVWASSWAFYRP — within error, -1.65 ± 0.78
- AGMGRSVWSKRFRDISRVSS — higher, 0.511 ± 0.56
- GSCRHHRWGLVRGMFCVSAL — higher, 1.17 ± 0.42
- YRDRINSNYFALDFNILLHY — higher, 3.57 ± 0.046
- MPWFIQMVHLCWFPEGRTRF — higher, 4.85 ± 0.071

With SYNVFDVQIVLRYIVKLFTG the amyloid nucleation score was “inactive”.
With NIRMVNLLAYVCPEVIREAC the amyloid nucleation score was “inactive”.
For NMHNTCMYKRKLVMDSSVWL, the amyloid nucleation score was “inactive”.
With VYLINRWVYPWEFIVHIIRV the amyloid nucleation score was “inactive”.
With IRCSVVDLCESSADSTSVRP the amyloid nucleation score was “inactive”.
In the case of YIMTYDYVCKNVGWYFTRC, the amyloid nucleation score is reported as “inactive”.
In the case of YVLKLRRSRQSLSHRPALLY, the amyloid nucleation score is reported as “inactive”.
In the case of GGYIQRNNDNRFAEQV, the amyloid nucleation score is reported as “inactive”.
For VVPYS, the amyloid nucleation score was “inactive”.
In the case of ASFCNVWGDNVWRYTLLRFK, the amyloid nucleation score is reported as “inactive”.
In the case of TSISYLRVYTRSFMRSLSGL, the amyloid nucleation score is reported as “inactive”.
For SWLSYSVRSM, the amyloid nucleation score was “inactive”.
In the case of KRSKSR, the amyloid nucleation score is reported as “inactive”.
With MKIYARIMSFLWATVKCVGY the amyloid nucleation score was “inactive”.
In the case of LRLFCDMYTISSNAVDFVKF, the amyloid nucleation score is reported as “inactive”.
In the case of FIVRSLRSSHTKTVPLPACC, the amyloid nucleation score is reported as “inactive”.
In the case of EIDQSYVNTSSQQTSIYV, the amyloid nucleation score is reported as “inactive”.
In the case of LSNLGTNYR, the amyloid nucleation score is reported as “inactive”.
With TEIHNT the amyloid nucleation score was “inactive”.

— the supplement of paper PMC12042874
